From patent US10500249B2, “Compositions and methods for preventing or treating diseases, conditions, or processes characterized by aberrant fibroblast proliferation and extracellular matrix deposition” (MOERAE MATRIX, INC., priority 2014, dated 2019)

Tests used:
Experiment in all cases: Kinase Profiling Assay
Assay type in all cases: biochemical
Conditions in all cases: 100 μM
Fes (h) = Fes (h) (Homo sapiens, UniProt P07332)
Procedure, shortened: (§1)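 Measured twice per kinase, activity in presence of MK2 inhibitory peptide was calculated against a 100% activity control after radiometric phosphorylation of a cationic substrate, anionic filter capture and scintillation counting; one of 266 human kinases profiled for specificity.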

TSSK1 (h) = biological target: T1, TSSK1 (h) (Homo sapiens, UniProt Q9BXA7)
T1 sequence (Q9BXA7 1-367): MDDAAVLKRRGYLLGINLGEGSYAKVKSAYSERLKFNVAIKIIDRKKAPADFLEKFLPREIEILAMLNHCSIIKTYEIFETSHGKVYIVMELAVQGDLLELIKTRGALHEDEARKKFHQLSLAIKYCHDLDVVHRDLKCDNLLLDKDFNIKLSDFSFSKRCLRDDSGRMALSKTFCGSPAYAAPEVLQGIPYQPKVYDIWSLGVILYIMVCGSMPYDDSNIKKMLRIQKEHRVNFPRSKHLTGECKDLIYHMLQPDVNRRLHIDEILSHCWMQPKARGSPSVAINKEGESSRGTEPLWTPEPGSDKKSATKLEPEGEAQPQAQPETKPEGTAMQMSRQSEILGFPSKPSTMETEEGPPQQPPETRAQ
Procedure, shortened: as §1

DCAMKL2 (h) = biological target: T2, DCAMKL2 (h) (Homo sapiens, UniProt Q8N568)
T2 construct: purchased Millipore
T2 sequence (Q8N568 1-766): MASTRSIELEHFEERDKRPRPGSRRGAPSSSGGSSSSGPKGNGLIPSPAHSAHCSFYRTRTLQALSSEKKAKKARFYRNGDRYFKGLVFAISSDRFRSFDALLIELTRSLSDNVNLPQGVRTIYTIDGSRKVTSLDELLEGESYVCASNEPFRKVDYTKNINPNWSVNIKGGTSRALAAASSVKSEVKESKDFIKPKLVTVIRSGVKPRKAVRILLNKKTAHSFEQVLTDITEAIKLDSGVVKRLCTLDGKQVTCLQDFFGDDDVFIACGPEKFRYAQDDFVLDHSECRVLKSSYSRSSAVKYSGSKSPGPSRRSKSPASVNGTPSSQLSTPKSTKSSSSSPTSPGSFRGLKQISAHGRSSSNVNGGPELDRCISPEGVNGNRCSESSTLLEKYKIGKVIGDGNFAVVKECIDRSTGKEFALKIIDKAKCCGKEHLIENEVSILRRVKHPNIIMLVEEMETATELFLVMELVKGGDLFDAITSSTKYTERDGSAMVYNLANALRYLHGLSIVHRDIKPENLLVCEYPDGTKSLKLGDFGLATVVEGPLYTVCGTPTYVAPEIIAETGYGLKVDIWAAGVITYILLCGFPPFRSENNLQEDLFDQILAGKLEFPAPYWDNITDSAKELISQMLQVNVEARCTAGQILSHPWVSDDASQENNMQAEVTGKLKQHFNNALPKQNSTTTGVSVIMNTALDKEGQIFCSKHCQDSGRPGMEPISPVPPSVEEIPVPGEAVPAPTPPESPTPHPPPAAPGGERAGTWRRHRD
Procedure, shortened: as §1

MKK6 (h) = biological target: T3, MKK6 (h) (Homo sapiens, UniProt P52564)
T3 construct: purchased Millipore
T3 sequence (P52564 1-334): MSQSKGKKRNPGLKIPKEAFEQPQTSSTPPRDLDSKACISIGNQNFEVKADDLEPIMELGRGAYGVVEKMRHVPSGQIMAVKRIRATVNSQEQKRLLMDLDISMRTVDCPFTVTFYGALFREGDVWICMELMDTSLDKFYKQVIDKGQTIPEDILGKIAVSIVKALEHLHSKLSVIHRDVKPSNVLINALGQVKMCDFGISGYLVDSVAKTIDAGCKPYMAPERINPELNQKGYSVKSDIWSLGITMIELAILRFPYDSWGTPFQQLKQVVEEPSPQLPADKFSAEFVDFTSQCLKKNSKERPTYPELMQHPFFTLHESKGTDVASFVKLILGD
Procedure, shortened: as §1

BrSK2 (h) = biological target: T4, BrSK2 (h) (Homo sapiens, UniProt Q8IWQ3)
T4 sequence (Q8IWQ3 1-736): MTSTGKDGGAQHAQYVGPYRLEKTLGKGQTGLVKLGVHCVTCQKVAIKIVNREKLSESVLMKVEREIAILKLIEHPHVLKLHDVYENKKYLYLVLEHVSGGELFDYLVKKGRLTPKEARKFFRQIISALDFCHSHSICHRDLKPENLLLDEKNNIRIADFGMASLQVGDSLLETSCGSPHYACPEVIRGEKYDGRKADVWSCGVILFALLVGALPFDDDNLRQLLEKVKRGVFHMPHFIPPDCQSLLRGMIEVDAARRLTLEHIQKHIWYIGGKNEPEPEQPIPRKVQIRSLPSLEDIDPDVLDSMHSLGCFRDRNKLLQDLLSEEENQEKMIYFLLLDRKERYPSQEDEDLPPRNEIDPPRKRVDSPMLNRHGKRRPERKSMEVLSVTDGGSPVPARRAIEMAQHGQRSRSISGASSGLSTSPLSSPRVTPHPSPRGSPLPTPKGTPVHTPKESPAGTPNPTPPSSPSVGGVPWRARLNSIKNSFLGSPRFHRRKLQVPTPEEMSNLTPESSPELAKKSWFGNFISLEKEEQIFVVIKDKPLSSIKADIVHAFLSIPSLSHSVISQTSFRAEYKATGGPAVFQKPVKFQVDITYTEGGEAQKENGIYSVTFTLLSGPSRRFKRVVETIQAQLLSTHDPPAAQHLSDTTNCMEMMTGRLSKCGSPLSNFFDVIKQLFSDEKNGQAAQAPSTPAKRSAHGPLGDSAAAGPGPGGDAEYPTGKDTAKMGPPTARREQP
Procedure, shortened: as §1

Chain of Fes (h) (P07332 whole entry): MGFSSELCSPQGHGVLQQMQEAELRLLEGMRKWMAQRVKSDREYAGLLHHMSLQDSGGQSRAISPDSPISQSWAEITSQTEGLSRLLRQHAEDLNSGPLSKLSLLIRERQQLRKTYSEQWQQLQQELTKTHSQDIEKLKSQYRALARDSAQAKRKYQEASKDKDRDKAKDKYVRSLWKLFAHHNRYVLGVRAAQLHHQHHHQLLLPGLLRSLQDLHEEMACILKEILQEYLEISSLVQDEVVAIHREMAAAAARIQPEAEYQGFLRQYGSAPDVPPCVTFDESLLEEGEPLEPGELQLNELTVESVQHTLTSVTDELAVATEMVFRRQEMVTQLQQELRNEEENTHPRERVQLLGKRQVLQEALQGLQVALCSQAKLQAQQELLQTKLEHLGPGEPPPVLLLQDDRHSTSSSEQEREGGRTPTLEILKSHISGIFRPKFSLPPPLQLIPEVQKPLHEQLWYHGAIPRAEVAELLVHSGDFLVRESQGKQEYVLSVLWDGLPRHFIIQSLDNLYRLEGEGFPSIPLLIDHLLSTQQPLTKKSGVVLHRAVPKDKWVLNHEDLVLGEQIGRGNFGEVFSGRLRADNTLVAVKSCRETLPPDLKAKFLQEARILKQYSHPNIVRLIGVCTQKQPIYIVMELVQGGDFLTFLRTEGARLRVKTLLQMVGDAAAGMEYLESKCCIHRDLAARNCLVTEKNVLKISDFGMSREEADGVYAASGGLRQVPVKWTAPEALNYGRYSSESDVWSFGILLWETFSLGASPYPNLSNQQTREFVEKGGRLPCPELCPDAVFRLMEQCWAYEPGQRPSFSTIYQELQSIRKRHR

Sequence | % activity (Fes (h)) [%] | % activity (TSSK1 (h)) [%] | % activity (DCAMKL2 (h)) [%] | % activity (MKK6 (h)) [%] | % activity (BrSK2 (h)) [%]
FAKLAARLYRKALARQLGVAA [MMI-0300] | 20 | 79 | 81 | 48 | 83
HRRIKAWLKKIKALARQLGVAA (Mammalian) [MMI-0500] | 23 | 46 | 56 | 18 | 84
YARAAARQARAKALNRQLGVA (Mammalian) [MMI-0200] | 74 | 98 | 131 | 98 | 
KAFAKLAARLYRKALARQLGVAA [MMI-0400] | 16 | 79 | 70 | 44 | 86
